B1: NIV-13 Fab (Fab, V domains shown)
VH: EVQLLESGGGLVQPGGSLRLSCAASGFTFSRYALSWVRQAPGKGLEWVSAISGAAITTYYADSVKGRFTISRDDSRNTLFMQMDSLRAEDTAVYYCAKGDYYDSSGYLAEYFPHWGQGTLVTVSS
VL: SYELTQPPSVSVSPGQTARITCFADALPKQHAYWYQQKAGQAPVLVIFKDTERPSGIPKRFSGSRSGATVTLTISGVQAEDEADYYCQSTDISGVLFGGGTKLTVL
B2: NIV-11 Fab (Fab, V domains shown)
VH: QLVQSGPEVKKPGTSVKVSCKASGFTFYYSAVQWVRQARGQRLEWLGWMAVGSGKANYAQKFQERLTLTRDMSTSTAYMELSSLRSEDTAVYYCAAPNCTGGSCYDGFNLWGQGTVVTVSS
VL: EIVLTQSPGTLSLSPGDRAILSCRASQTVNSNYLAWYQQKPGQAPRLLIYGTSSRATGIPDRFSGSGSGTDFTLTISRLEPEDFAVYYCQQYGSSPWLFGQGTKVEIK
B3: NIV-8 Fab (Fab, V domains shown)
VH: EVQLVESGGGVVQPGRSLRLSCAASGFKFSKFAMHWVRQAPGKGPEWVAVISYDGNQYHSADSVKGRFTISRDNSFNTLYLQMNSLGPEDTAVYYCARDGPDTSGYYANIYFDFWGQGTLVTVSS
VL: QSVLTQPPSVSGAPGQRVTISCTGSSSNIGAGYDVHWYQQLPGRAPKLLIFDNNNRPSGVPDRFSGSKSGTSASLAITGLQTEDEAYYYCQSYDNSLILAVFGGGTKVTVL
B4: NIV-10 Fab (Fab, V domains shown)
VH: EVQLVESGGGLVQPGGSLRLSCAASGFTFYSYWMTWVRQAPGKGLEWVANIKHDESESHYVDSVRGRFTISRDNAKNSVYLQMKGLRAEDTAVYYCARDGGYNILTAYYHAPSYWGQGTLVTVSS
VL: QSALTQPASVSGSPGQSITISCTGTSSDVGGYNFVSWYRQYPGKAPQLMIYDVSRRPSGDSDRFSGSKSGNTASLTISGLQAEDEAEYHCSSYTGRSPYVVFGGGTKVTVL

The first assay deals with SARS-CoV-2 spike receptor-binding domain, Omicron BA.1 variant (amino acids 331-529), biotinylated (SARS-CoV-2, Omicron BA.1, G339D | S371L | S373P | S375F | K417N | N440K | G446S | S477N | T478K | E484A | …, biotin (RBD expression vector co-expressed with BirA-Flag, 100 μM biotin added)). Briefly: BLI. The note with it: both partners purified.
As usually defined, the Kd is the concentration at which binding is half-saturated. High values mean weaker binding, low ones tighter binding. By koff is commonly meant the rate constant with which the complex falls apart. As usually defined, the kon is a measure of how fast the partners come together. B1: binding was characterised by a dissociation constant (Kd) of 0.802 nM, the koff turned out to be 0.000248 s⁻¹ and the kon was 309000 M⁻¹ s⁻¹.

B2 came in with a Kd of 9.14 nM, a koff of 0.00335 s⁻¹ and a kon of 366000 M⁻¹ s⁻¹.

The molecule B3 yielded a dissociation constant Kd of 24.7 nM, a koff of 0.00312 s⁻¹ and a kon of 126000 M⁻¹ s⁻¹.

B4 showed a Kd of 96.6 nM, a koff of 0.0124 s⁻¹ and a kon of 129000 M⁻¹ s⁻¹.

The target of the next assay is SARS-CoV-2 spike receptor-binding domain, Delta variant (amino acids 331-529), biotinylated (SARS-CoV-2, Delta, L452R | T478K, biotin (RBD expression vector co-expressed with BirA-Flag, 100 μM biotin added)). Briefly: BLI. The note with it: both partners purified.
In the case of B1, the Kd came out at 0.0919 nM, the koff was determined as 3.72e-05 s⁻¹ and the kon stood at 405000 M⁻¹ s⁻¹.

As to B2, the Kd turned out to be 0.00478 nM, the koff came to 5.08e-07 s⁻¹ and the kon amounted to 106000 M⁻¹ s⁻¹.

Turning to B3, the Kd stood at 0.00475 nM, the off-rate (koff) stood at 1.28e-06 s⁻¹ and the kon was 269000 M⁻¹ s⁻¹.

In turn, B4 gave a Kd of 0.00371 nM, a koff of 1.31e-06 s⁻¹ and a kon of 354000 M⁻¹ s⁻¹.

The target in the next assay is SARS-CoV-2 spike receptor-binding domain, Omicron BA.2 variant (amino acids 331-529), biotinylated (SARS-CoV-2 Omicron BA.2, G504D | S371F | S375F | T376A | D405N | R408S | K417N | N440K | S477N | T478K | …, biotin (RBD expression vector co-expressed with BirA-Flag, 100 μM biotin added)). Briefly: BLI. The note with it: both partners purified.
In turn, B1 returned a Kd of 1.49 nM, a koff of 0.000369 s⁻¹ and a kon of 247000 M⁻¹ s⁻¹.

For B2, the Kd came out at 11 nM, the koff stood at 0.00355 s⁻¹ and the kon worked out at 322000 M⁻¹ s⁻¹.

Molecule B3 had a Kd of 20 nM, a koff of 0.00206 s⁻¹ and a kon of 103000 M⁻¹ s⁻¹.

The molecule B4 registered an equilibrium dissociation constant (Kd) of 76.1 nM, a koff of 0.0064 s⁻¹ and a kon of 84100 M⁻¹ s⁻¹.

(Values after article PMC10349087 (Nature Communications, 2023).)
